From US20120283184A1 (published 2012)
Substitutions are numbered along the chain they refer to. One block for each binder: values may come before it.

Assays:
[1] = molecular target: T1, Flk-1-Fc (mouse vascular endothelial growth factor receptor-2 Fc chimera) (mouse, UniProt P35918 20-762); experiment: method not given
T1 construct: Purchased from R&D Systems; also called mouse VEGF-R2-Fc; not shown: Fc part of the purchased chimera

[2] = molecular target: T2, human vascular endothelial growth factor receptor-2 Fc chimera (KDR-Fc) (human, UniProt P35968 20-764); experiment: radioactive equilibrium binding, 1 nM KDR-Fc
T2 construct: range 1-764; Purchased from R&D Systems; also called hKDR; human VEGF-R2-Fc; not shown: human IgG1 Fc
T2 sequence (P35968 20-764 limits assumed, change not shown, form in doubt): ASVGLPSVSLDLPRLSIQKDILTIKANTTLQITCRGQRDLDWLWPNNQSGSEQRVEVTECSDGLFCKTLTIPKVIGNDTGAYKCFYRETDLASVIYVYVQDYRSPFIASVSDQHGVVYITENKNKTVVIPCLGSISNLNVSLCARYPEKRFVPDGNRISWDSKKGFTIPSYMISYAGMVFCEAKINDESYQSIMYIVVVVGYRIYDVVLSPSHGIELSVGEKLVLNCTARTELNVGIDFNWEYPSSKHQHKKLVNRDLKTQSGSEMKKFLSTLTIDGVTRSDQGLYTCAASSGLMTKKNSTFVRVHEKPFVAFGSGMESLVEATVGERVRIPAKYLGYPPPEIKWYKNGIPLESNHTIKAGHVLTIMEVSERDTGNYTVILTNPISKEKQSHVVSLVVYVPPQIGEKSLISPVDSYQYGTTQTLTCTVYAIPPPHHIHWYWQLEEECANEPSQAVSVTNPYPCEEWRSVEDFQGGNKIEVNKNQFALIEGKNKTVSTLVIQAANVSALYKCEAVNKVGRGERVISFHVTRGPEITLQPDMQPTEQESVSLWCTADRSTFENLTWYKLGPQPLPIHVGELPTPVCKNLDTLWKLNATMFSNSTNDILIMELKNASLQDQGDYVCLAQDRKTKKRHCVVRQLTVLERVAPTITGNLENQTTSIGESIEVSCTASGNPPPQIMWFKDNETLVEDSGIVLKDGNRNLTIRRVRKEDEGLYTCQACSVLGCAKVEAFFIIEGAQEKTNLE
Experimental: (§1) To prepare ³⁵S-labeled binding proteins for analysis, mRNA was prepared as described above for RNA-protein fusion production but the linker ligation step was omitted. The mRNA was expressed using rabbit reticulocyte lysate translation kit (Ambion) in the presence of ³⁵S-labeled Met at 30° C. for 1 hour. Expressed protein was purified on M2-agarose Flag beads (Sigma) as described above. This procedure produced the encoded protein without the nucleic acid tail. In a direct binding assay, VEGF-R2-Fc fusions in concentrations ranging from 0 to 200 nM were added to a constant concentration of the purified protein (0.2 or 0.5 nM) and incubated at 30° C. for 1 hour in buffer B. The receptor-binder complexes were captured using Protein A magnetic beads for another 10 minutes at room temperature using a Kingfisher™ The beads were washed with six reaction volumes of buffer B. The protein was eluted from the beads with 100 μL of 0.1 M KOH. 50 μL of the reaction mixture and elution were dried onto a LumaPlate-96 (Packard) and the amount of ³⁵S on the plate was measured using a TopCount NXT instrument (Packard). The amount of fibronectin-based scaffold protein bound to the target was estimated as a percent of radioactivity eluted from Protein A magnetic beads compare to radioactivity in the reaction mixture. Nonspecific binding of fibronectin-based scaffold proteins to the beads was determined by measuring binding in the absence of KDR-Fc and represented less than 1-2% of the input. Specific binding was obtained through subtraction of nonspecific binding from total binding. Data was analyzed using the GraphPad Prizm software (GraphPad Software, Inc, San Diego, Calif.), fitted using a one site, non-linear binding equation.

[3] = molecular target: Flk-1-Fc (mouse vascular endothelial growth factor receptor-2 Fc chimera) (mouse) (UniProt P35918); experiment: radioactive equilibrium binding assay, % bound at 1 nM Flk-1-Fc
Sequence of Flk-1-Fc (mouse vascular endothelial growth factor receptor-2 Fc chimera) (mouse) (P35918 20-762, change not shown): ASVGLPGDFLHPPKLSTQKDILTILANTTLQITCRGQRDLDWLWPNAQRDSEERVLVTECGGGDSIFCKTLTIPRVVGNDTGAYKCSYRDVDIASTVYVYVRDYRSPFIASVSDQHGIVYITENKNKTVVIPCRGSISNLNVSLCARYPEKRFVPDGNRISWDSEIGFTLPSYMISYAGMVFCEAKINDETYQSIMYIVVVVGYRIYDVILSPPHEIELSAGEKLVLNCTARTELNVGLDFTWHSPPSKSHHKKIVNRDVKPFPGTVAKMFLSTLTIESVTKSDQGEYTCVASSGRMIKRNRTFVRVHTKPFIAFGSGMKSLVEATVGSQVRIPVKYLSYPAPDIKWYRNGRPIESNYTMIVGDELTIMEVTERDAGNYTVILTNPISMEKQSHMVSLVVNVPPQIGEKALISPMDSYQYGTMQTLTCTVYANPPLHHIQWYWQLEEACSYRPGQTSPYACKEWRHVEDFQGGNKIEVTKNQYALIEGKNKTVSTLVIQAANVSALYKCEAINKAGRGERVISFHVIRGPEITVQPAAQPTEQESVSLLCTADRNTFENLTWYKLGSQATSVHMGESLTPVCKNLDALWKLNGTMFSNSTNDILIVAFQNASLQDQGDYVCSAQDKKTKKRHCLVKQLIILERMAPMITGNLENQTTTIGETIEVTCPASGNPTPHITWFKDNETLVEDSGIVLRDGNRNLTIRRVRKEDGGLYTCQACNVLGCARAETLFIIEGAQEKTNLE

[4] = molecular target: T3, Flk-1-Fc (mouse vascular endothelial growth factor receptor-2 Fc chimera) (mouse, UniProt P35918 20-762); experiment: as above
T3 construct: Bought from R&D Systems; also called mouse VEGFR-2-Fc; Fc part of the bought chimera not given
Experimental: as §1

B3: 2′G11-PR4 (designed binder)
chain: VSDVPRDLEVVAATPTSLLISWRHPHFPTRYYRITYGETGGNSPVQEFTVPLQPPTATISGLKPGVDYTITVYAVTGGQMNRVLMTPISINYRT
notes: in vitro translated
Binding to 1 nM KDR, % [2]: 12%

B4: 2H10 PR3 (designed binder)
chain: B3 chain with G77L, G78A, Q79P, M80S, N81A, V83E
notes: in vitro translated
Binding to 1 nM KDR, % [2]: 10%

B5: 2H12 PR3 (designed binder)
chain: B3 chain with G77E, Q79Y, M80Q, R82H, V83E, M85S, T86V
notes: in vitro translated
Binding to 1 nM KDR, % [2]: 10%

B9: 3D4 PR3 (designed binder)
chain: EVVAATPTSLLISWRHPHFPTRYYRITYGETGGNSPVQEFTVPLQPPTATISGLKPGVDYTITVYAVTVGWNDHELITPISINYRT
notes: in vitro translated
Binding to 1 nM KDR, % [2]: 10%

B11: 2′DelB10 PR4 (designed binder)
chain: B9 chain with G70T, W71H, I77L
notes: in vitro translated
Binding to 1 nM KDR, % [2]: 11%

B14: 4′G8 PR4 (designed binder)
chain: B9 chain with G70A, W71Q, D73G, I77L
notes: in vitro translated
Binding to 1 nM KDR, % [2]: 13%

B17: 4′B6 PR4 (designed binder)
chain: B9 chain with V69L, G70A, W71Q
notes: in vitro translated
Binding to 1 nM KDR, % [2]: 11%

B20: 3′E4 PR4 (designed binder)
chain: B9 chain with W71P, H74R, T78V
notes: in vitro translated
Binding to 1 nM KDR, % [2]: 12%

B23: F12 (designed binder)
chain: B9 chain with V64G, V69D, W71R, D73G, I77M
notes: 10Fn3 clone, Del 1-8
Binding to 1 nM Flk-1, % [4]: 1%

B24: B11 (designed binder)
chain: B9 chain with V64G, G70E, W71R, D73G, H74R, I77K
notes: 10Fn3 clone, Del 1-8
Binding to 1 nM Flk-1, % [4]: 21%

B25: 3C5 PR3 (designed binder)
chain: B9 chain with V69G, G70D, W71H, H74R, I77M
notes: in vitro translated
Binding to 1 nM KDR, % [2]: 12%

B32: 2′DelB9 PR4 (designed binder)
chain: B9 chain with W71P, N72T, I77L
notes: in vitro translated
Binding to 1 nM KDR, % [2]: 11%

B33: 1′DelC6 PR4 (designed binder)
chain: B9 chain with G70A, W71Q, D73E, I77L
notes: in vitro translated
Binding to 1 nM KDR, % [2]: 12%

B34: 3F11 PR3 (designed binder)
chain: B9 chain with W71L, N72T, E75V, I77L
notes: in vitro translated
Binding to 1 nM KDR, % [2]: 10%

B36: 1′DelB10 PR4 (designed binder)
chain: B9 chain with G70A, W71R, I77M
notes: in vitro translated
Binding to 1 nM KDR, % [2]: 11%

B37: 3′E8 PR4 (designed binder)
chain: B9 chain with G70A, W71Q, H74R, E75Q, I77F
notes: in vitro translated
Binding to 1 nM KDR, % [2]: 12%

Next, values leading:

Kd [1]: > 3000 nM
B1: 159Q(8)L (designed binder)
chain: B3 chain with T56A, V72G, G77M, G78A, M80S, N81G, R82H, V83E, M85F
notes: also called clone 159

Binding to 1 nM KDR, % [2]: 11%
B2: 2′A1-PR4 (designed binder)
chain: B3 chain with G77S, Q79H, M80N, N81D, R82H, V83M, T86I
notes: in vitro translated

Binding to 1 nM KDR, % [2]: 11%
B6: 2′D5-PR4 (designed binder)
chain: B3 chain with G77V, G78A, Q79W, M80N, N81D, R82H, V83M
notes: in vitro translated

Binding to 1 nM Flk-1, % [3]: 1%
B7: EGE11 (SEQ ID NO: 87) (designed binder)
chain: B9 chain with V64G, V69M, W71K, H74R, I77L

Binding to 1 nM KDR, % [2]: 11%
B8: 1′DelH7 PR4 (designed binder)
chain: B9 chain with W71Q, H74Q, I77L
notes: in vitro translated

Binding to 1 nM KDR, % [2]: 11%
B10: 2′DelB11 PR4 (designed binder)
chain: B9 chain with W71Q, I77M
notes: in vitro translated

Binding to 1 nM KDR, % [2]: 11%
B12: 1′DelG11 PR4 (designed binder)
chain: B9 chain with V69L, G70A, W71Q, D73G, E75V
notes: in vitro translated

Binding to 1 nM Flk-1, % [4]: 2%
B13: G1 (designed binder)
chain: B9 chain with V64G, V69E, W71R, D73G, H74R, I77M, T78V
notes: 10Fn3 clone, Del 1-8

Binding to 1 nM KDR, % [2]: 11%
B15: 1′DelC5 PR4 (designed binder)
chain: B9 chain with V69L, G70A, W71Q, L76I, I77M
notes: in vitro translated

Binding to 1 nM KDR, % [2]: 10%
B16: 3F4 PR3 (designed binder)
chain: B9 chain with V69M, W71Y, N72E
notes: in vitro translated

Binding to 1 nM KDR, % [2]: 10%
B18: 1′DelH9 PR4 (designed binder)
chain: B9 chain with W71Q
notes: in vitro translated

Binding to 1 nM KDR, % [2]: 12%
B19: 1′DelD3 PR4 (designed binder)
chain: B9 chain with V69L, G70A, W71Q, D73N
notes: in vitro translated

Binding to 1 nM KDR, % [2]: 11%
B21: 3H9 PR3 (designed binder)
chain: B9 chain with G70S, W71Q, N72Q, D73N, I77L
notes: in vitro translated

Binding to 1 nM KDR, % [2]: 11%
B22: 3F5 PR3 (designed binder)
chain: B9 chain with G70A, W71Y, D73E, I77Y
notes: in vitro translated

Binding to 1 nM KDR, % [2]: 12%
B26: 3′D4 PR4 (designed binder)
chain: B9 chain with V69L, G70A, W71H, H74R
notes: in vitro translated

Binding to 1 nM Flk-1, % [4]: 21%
B27: B12 (designed binder)
chain: B9 chain with V64G, G70E, W71R, D73G, H74R, I77R
notes: 10Fn3 clone, Del 1-8

Binding to 1 nM KDR, % [2]: 10%
B28: 3G10 PR3 (designed binder)
chain: B9 chain with G70V, W71H, D73G, L76I, I77L
notes: in vitro translated

Binding to 1 nM KDR, % [2]: 13%
B29: 1′DelA4 PR4 (designed binder)
chain: B9 chain with V64G, G70A, W71Q, I77F
notes: in vitro translated

Binding to 1 nM KDR, % [2]: 12%
B30: 3E6 PR3 (designed binder)
chain: B9 chain with G70P, W71Q, D73G, P79M
notes: in vitro translated

Binding to 1 nM KDR, % [2]: 10%
B31: 1′DelG9 PR4 (designed binder)
chain: B9 chain with G70A, W71Q, N72S, I77M
notes: in vitro translated

Binding to 1 nM KDR, % [2]: 10%
B35: 4C4 PR3 (designed binder)
chain: B9 chain with G70A, W71Q, N72D, I77F
notes: in vitro translated

Binding to 1 nM KDR, % [2]: 10%
B38: 4A4 PR3 (designed binder)
chain: B9 chain with G70A, W71Q, I77F
notes: in vitro translated

Binding to 1 nM KDR, % [2]: 12%
B39: 3A8 PR3 (designed binder)
chain: B9 chain with V69E, G70A, W71H, N72H, D73G, I77M, T78I
notes: in vitro translated

Binding to 1 nM KDR, % [2]: 10%
B40: 3D11 PR3 (designed binder)
chain: B9 chain with V69L, W71Q, N72E, D73N, H74Q
notes: in vitro translated
